This data set concerns Saccharomyces cerevisiae. Description: protein stability index of tFT-peptide fusion (C-terminal peptide) (PSI (0-1 scale)); higher = more stable (slower turnover). The settings on record: temperature: 30 C. The method, then: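 MPS profiling in S. cerevisiae of the yeast C-terminome library: the last 12 aa of each annotated ORF are fused to the C-terminus of a sfGFP-mCherry timer, after a GGGS linker. Cells are FACS-sorted into 8 mCherry/sfGFP bins and deep-sequenced. PSI runs from 0 (unstable) to 1 (stable); wild type and das1Δ backgrounds, two technical replicates each.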

Where [1] appears, read: genetic background: das1 deletion.

± gives the standard deviation of the averaged measurements.

Turning to SKRVYSICHYEF [ABM1 C-terminal 12 aa], the protein stability index is, setting by setting: under setting [1], 0.693 ± 0.018; (genetic background: wild type) 0.695 ± 0.012.
On the same counts, the results for SKVNSTRLVSRK [KAR3 C-terminal 12 aa] are 0.6908 ± 0.0058 and 0.723 ± 0.014.
Regarding SLEHFIDSVSSL [TRP4 C-terminal 12 aa], the protein stability index is, setting by setting: under setting [1], 0.7199 ± 0.0016; (genetic background: wild type) 0.672 ± 0.013.
Consider SLIDAKTGLPKE [MVD1 C-terminal 12 aa], for which the protein stability index under setting [1] stood at 0.6964 ± 0.004 and the protein stability index (genetic background: wild type) amounted to 0.706 ± 0.042.
On the same counts, the results for SLVKTHNSSLCK [IAI11 C-terminal 12 aa] are 0.663 ± 0.026 and 0.689 ± 0.095.
On the same counts, the results for SNYGGNSTWGGH [SPT5 C-terminal 12 aa] are 0.732 ± 0.11 and 0.673 ± 0.16.
Consider SPELHTYETIYD [ROY1 C-terminal 12 aa], for which the protein stability index is, setting by setting: under setting [1], 0.752 ± 0.0093; (genetic background: wild type) 0.7694 ± 0.0053.
In the case of SPEQLKVSLKWH [SKM1 C-terminal 12 aa], the protein stability index reads like this: under setting [1], 0.718 ± 0.01; (genetic background: wild type) 0.699 ± 0.022.
For SPGEYEIGDMEN [YDR061W C-terminal 12 aa], in that order: 0.675 ± 0.016 and 0.681 ± 0.048.
As to SPVPTKKKGFLR [CDC3 C-terminal 12 aa], the protein stability index is 0.705 ± 0.017 under setting [1] and 0.684 ± 0.012 (genetic background: wild type).
For SQLPSLYAPSYY [SSU72 C-terminal 12 aa], in that order: 0.703 ± 0.02 and 0.7264 ± 0.0056.
For SQTKSKQTLFTI [YPR142C C-terminal 12 aa], in that order: 0.722 ± 0.021 and 0.695 ± 0.038.
For SQTQAGSAYYTK [YOR268C C-terminal 12 aa], in that order: 0.699 ± 0.026 and 0.688 ± 0.025.
For the sequence SRGQNTHPSVDK [ESC1 C-terminal 12 aa], the protein stability index by setting is: under setting [1], 0.699 ± 0.012; (genetic background: wild type) 0.692 ± 0.029.
SRIYQTFTDPSN [ADY4 C-terminal 12 aa] registered a protein stability index under setting [1] of 0.729 ± 0.024 and a protein stability index (genetic background: wild type) of 0.702 ± 0.061.
For SRKHTTRSGGRW [HOS3 C-terminal 12 aa], the protein stability index is, setting by setting: under setting [1], 0.695 ± 0.017; (genetic background: wild type) 0.6554 ± 0.00091.
For the sequence SSAHMSSNAIQR [CDC10 C-terminal 12 aa], the protein stability index worked out at 0.7077 ± 0.0023 under setting [1] and 0.721 ± 0.016 (genetic background: wild type).
Regarding SSESEAVKKAKS [CIC1 C-terminal 12 aa], the protein stability index turned out to be 0.668 ± 0.031 under setting [1] and 0.685 ± 0.062 (genetic background: wild type).
For SSKKTIQEEIYI [DPB2 C-terminal 12 aa], in that order: 0.698 ± 0.015 and 0.741 ± 0.056.
For SSLARPSLFSSE [YBL077W C-terminal 12 aa], in that order: 0.735 ± 0.026 and 0.714 ± 0.056.
As for SSNEDKKGMCKL [IDP3 C-terminal 12 aa], the protein stability index reads like this: under setting [1], 0.736 ± 0.048; (genetic background: wild type) 0.901 ± 0.037.
As to “SSNTVYDNILVT [YDR034C-A C-terminal 12 aa]”, the protein stability index is, setting by setting: under setting [1], 0.721 ± 0.037; (genetic background: wild type) 0.724 ± 0.028.
For SSSEQITSSITS [YAR062W C-terminal 12 aa], in that order: 0.71 ± 0.025 and 0.67 ± 0.008.
On the same counts, the results for SSTDMNGQPIEF [SKA1 C-terminal 12 aa] are 0.6884 ± 0.0061 and 0.67 ± 0.015.
For the sequence SSVRTLDSNIWR [ISC10 C-terminal 12 aa], the protein stability index reads like this: under setting [1], 0.7128 ± 0.0013; (genetic background: wild type) 0.686 ± 0.024.
SSVVSRVSRSCR [YAR060C C-terminal 12 aa]: the protein stability index by setting is: under setting [1], 0.7343 ± 0.0019; (genetic background: wild type) 0.668 ± 0.043.
On the same counts, the results for SSWISKHSSVTD [YDL109C C-terminal 12 aa] are 0.696 ± 0.0068 and 0.6859 ± 0.002.
For STKFLRSFGQTI [SWP1 C-terminal 12 aa], the protein stability index reads like this: under setting [1], 0.70697 ± 0.0003; (genetic background: wild type) 0.686 ± 0.012.
On the same counts, the results for STKTVPLNFLFL [YDL050C C-terminal 12 aa] are 0.724 ± 0.01 and 0.677 ± 0.032.
On the same counts, the results for STMQERFAESTD [VMA1 C-terminal 12 aa] are 0.682 ± 0.011 and 0.706 ± 0.032.
For SVENIFMIWFFY [YJL022W C-terminal 12 aa], in that order: 0.5089 ± 0.0034 and 0.494 ± 0.011.
Take SVHPLIISYSQL [TRM732 C-terminal 12 aa]: the protein stability index runs as follows: under setting [1], 0.716 ± 0.05; (genetic background: wild type) 0.637 ± 0.024.
As for SVVSQPPPGYEQ [HSE1 C-terminal 12 aa], the protein stability index by setting is: under setting [1], 0.7102 ± 0.0066; (genetic background: wild type) 0.667 ± 0.02.
For SVYQPFFALCGL [YDR355C C-terminal 12 aa], the protein stability index worked out at 0.6756 ± 0.0066 under setting [1] and 0.645 ± 0.017 (genetic background: wild type).
For SYRLGKNAAEGK [CAP1 C-terminal 12 aa], in that order: 0.685 ± 0.017 and 0.663 ± 0.025.
Take TAPLGKALHDLS [REE1 C-terminal 12 aa]: the protein stability index reads like this: under setting [1], 0.687 ± 0.059; (genetic background: wild type) 0.72 ± 0.059.
On to TASQILKFEGRI [GRE2 C-terminal 12 aa], for which the protein stability index reads like this: under setting [1], 0.718 ± 0.035; (genetic background: wild type) 0.695 ± 0.057.
TEAMNSEIDGTK [ATG16 C-terminal 12 aa]: the protein stability index reads like this: under setting [1], 0.686 ± 0.017; (genetic background: wild type) 0.703 ± 0.042.
For TFELVMRFLGEE [YMC2 C-terminal 12 aa], in that order: 0.709 ± 0.0094 and 0.669 ± 0.0095.
TFQKAQVEAEWV [TOA1 C-terminal 12 aa]: the protein stability index stood at 0.70901 ± 0.00064 under setting [1] and 0.692 ± 0.027 (genetic background: wild type).
On the same counts, the results for “TFTLAVTPYPAF [YLL066W-B C-terminal 12 aa]” are 0.715 ± 0.013 and 0.6847 ± 0.0036.
For TGNGPNLDNLKY [ARA1 C-terminal 12 aa], in that order: 0.722 ± 0.0074 and 0.641 ± 0.019.
On to “TGWPTGLRHQHT [YER133W-A C-terminal 12 aa]”, for which the protein stability index by setting is: under setting [1], 0.7212 ± 0.0034; (genetic background: wild type) 0.695 ± 0.011.
On the same counts, the results for TKKLLRDYFSQF [SMN1 C-terminal 12 aa] are 0.712 ± 0.0096 and 0.188 ± 0.014.
TKMFPAHSHVLW [THP1 C-terminal 12 aa]: the protein stability index is, setting by setting: under setting [1], 0.716 ± 0.032; (genetic background: wild type) 0.72 ± 0.014.
For TLGLLCLIFGLP [YOR277C C-terminal 12 aa], in that order: 0.482 ± 0.0081 and 0.499 ± 0.018.
For TLLNAQKEALKK [APT1 C-terminal 12 aa], in that order: 0.6698 ± 0.0014 and 0.684 ± 0.03.
For “TLSKEPFLVFSF [YDL185C-A C-terminal 12 aa]”, in that order: 0.499 ± 0.026 and 0.494 ± 0.025.
In the case of TMSLLKRNPRNH [TRM44 C-terminal 12 aa], the protein stability index turned out to be 0.704 ± 0.02 under setting [1] and 0.683 ± 0.032 (genetic background: wild type).
On the same counts, the results for TNEWCLFTPDSP [MLH2 C-terminal 12 aa] are 0.744 ± 0.018 and 0.7355 ± 0.005.
TNMSSVSAFISR [PTK2 C-terminal 12 aa]: the protein stability index by setting is: under setting [1], 0.718 ± 0.0017; (genetic background: wild type) 0.713 ± 0.013.
On the same counts, the results for TNQPVNENNDLK [SNF3 C-terminal 12 aa] are 0.667 ± 0.013 and 0.629 ± 0.0078.
For TPHNHNQNQHTN [RSF1 C-terminal 12 aa], in that order: 0.72 ± 0.029 and 0.706 ± 0.03.
For TPSSVQSSPKRA [ZRG8 C-terminal 12 aa], the protein stability index came to 0.696 ± 0.017 under setting [1] and 0.668 ± 0.0075 (genetic background: wild type).
TPTCQDPSLTEV [YJR038C C-terminal 12 aa]: the protein stability index reads like this: under setting [1], 0.7253 ± 0.0048; (genetic background: wild type) 0.6895 ± 0.0068.
As for TSLGLTRTTIIP [CDC4 C-terminal 12 aa], the protein stability index reads like this: under setting [1], 0.685 ± 0.021; (genetic background: wild type) 0.6778 ± 0.0043.
In turn, TSPIGEFQSIKH [SPT21 C-terminal 12 aa] showed a protein stability index under setting [1] of 0.731 ± 0.015 and a protein stability index (genetic background: wild type) of 0.674 ± 0.037.
As to TSQEINDRLEAL [PRE8 C-terminal 12 aa], the protein stability index by setting is: under setting [1], 0.666 ± 0.027; (genetic background: wild type) 0.643 ± 0.0082.
For TSSQKIYHTSNK [IPK1 C-terminal 12 aa], in that order: 0.686 ± 0.05 and 0.672 ± 0.049.
For TVDYIASNPDAN [ACP1 C-terminal 12 aa], in that order: 0.696 ± 0.0025 and 0.736 ± 0.038.
TVGIHSPIDEKC [ATG4 C-terminal 12 aa]: the protein stability index by setting is: under setting [1], 0.699 ± 0.013; (genetic background: wild type) 0.669 ± 0.015.
For TVVDARIDGRGK [PHB2 C-terminal 12 aa], in that order: 0.6724 ± 0.0014 and 0.708 ± 0.045.
Consider TYSEREGNLLNS [RPR2 C-terminal 12 aa], for which the protein stability index was found to be 0.7159 ± 0.0046 under setting [1] and 0.675 ± 0.0073 (genetic background: wild type).
On to VASLPSRYSRYD [ALR1 C-terminal 12 aa], for which the protein stability index is 0.711 ± 0.024 under setting [1] and 0.654 ± 0.013 (genetic background: wild type).
As for VDKLAGVRVLPV [GOT1 C-terminal 12 aa], the protein stability index reads like this: under setting [1], 0.67 ± 0.01; (genetic background: wild type) 0.704 ± 0.019.
On the same counts, the results for VEKKKVLSKITL [VPH2 C-terminal 12 aa] are 0.691 ± 0.033 and 0.691 ± 0.048.
On the same counts, the results for VESTRETGGCNC [YPT53 C-terminal 12 aa] are 0.692 ± 0.027 and 0.65486 ± 0.00056.

(Values after the supplement of paper PMC10724198.)
